Test results: publication PMC7269131

Biological target: Factor XIIIA (the A-subunit of coagulation Factor XIII), zymogen (UniProt P00488)
Experiment: AUC

Factor XIIIA (the A-subunit of coagulation Factor XIII), zymogen (from UniProt P00488 1-732) (enzyme)
percent dissociated to monomers after 6 h in 25 mM CaCl2: 80%
